What was measured:
[1] = target: iSRCR1 (Deglycosylated) (human) (UniProt Q9UGM3); experiment: SPR, analyte over ligand deglycosylated on the CM5 chip, 1:1 Langmuir model
[2] = target: iSRCR123 (Deglycosylated) (human) (UniProt Q9UGM3); experiment: as above
[3] = target: salivary agglutinin (SAG) (human) (UniProt Q9UGM3); experiment: SPR, analyte over SAG immobilized on CM5 chip, 1:1 Langmuir model
[4] = target: iSRCR123 (human) (UniProt Q9UGM3); experiment: SPR, analyte over ligand immobilized on CM5 chip, 1:1 Langmuir model
Sequence of iSRCR123 (human) (Q9UGM3 102-463 limits assumed): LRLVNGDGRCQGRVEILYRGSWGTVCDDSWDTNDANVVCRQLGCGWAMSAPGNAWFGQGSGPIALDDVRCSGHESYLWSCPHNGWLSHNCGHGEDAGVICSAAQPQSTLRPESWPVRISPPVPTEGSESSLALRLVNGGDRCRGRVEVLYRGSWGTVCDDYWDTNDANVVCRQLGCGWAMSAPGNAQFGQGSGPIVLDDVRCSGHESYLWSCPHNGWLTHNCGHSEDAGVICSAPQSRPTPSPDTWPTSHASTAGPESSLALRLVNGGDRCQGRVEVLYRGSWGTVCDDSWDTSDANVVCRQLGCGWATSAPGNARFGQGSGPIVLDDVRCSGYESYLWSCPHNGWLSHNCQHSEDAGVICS

Sequence of salivary agglutinin (SAG) (human) (Q9UGM3 whole entry): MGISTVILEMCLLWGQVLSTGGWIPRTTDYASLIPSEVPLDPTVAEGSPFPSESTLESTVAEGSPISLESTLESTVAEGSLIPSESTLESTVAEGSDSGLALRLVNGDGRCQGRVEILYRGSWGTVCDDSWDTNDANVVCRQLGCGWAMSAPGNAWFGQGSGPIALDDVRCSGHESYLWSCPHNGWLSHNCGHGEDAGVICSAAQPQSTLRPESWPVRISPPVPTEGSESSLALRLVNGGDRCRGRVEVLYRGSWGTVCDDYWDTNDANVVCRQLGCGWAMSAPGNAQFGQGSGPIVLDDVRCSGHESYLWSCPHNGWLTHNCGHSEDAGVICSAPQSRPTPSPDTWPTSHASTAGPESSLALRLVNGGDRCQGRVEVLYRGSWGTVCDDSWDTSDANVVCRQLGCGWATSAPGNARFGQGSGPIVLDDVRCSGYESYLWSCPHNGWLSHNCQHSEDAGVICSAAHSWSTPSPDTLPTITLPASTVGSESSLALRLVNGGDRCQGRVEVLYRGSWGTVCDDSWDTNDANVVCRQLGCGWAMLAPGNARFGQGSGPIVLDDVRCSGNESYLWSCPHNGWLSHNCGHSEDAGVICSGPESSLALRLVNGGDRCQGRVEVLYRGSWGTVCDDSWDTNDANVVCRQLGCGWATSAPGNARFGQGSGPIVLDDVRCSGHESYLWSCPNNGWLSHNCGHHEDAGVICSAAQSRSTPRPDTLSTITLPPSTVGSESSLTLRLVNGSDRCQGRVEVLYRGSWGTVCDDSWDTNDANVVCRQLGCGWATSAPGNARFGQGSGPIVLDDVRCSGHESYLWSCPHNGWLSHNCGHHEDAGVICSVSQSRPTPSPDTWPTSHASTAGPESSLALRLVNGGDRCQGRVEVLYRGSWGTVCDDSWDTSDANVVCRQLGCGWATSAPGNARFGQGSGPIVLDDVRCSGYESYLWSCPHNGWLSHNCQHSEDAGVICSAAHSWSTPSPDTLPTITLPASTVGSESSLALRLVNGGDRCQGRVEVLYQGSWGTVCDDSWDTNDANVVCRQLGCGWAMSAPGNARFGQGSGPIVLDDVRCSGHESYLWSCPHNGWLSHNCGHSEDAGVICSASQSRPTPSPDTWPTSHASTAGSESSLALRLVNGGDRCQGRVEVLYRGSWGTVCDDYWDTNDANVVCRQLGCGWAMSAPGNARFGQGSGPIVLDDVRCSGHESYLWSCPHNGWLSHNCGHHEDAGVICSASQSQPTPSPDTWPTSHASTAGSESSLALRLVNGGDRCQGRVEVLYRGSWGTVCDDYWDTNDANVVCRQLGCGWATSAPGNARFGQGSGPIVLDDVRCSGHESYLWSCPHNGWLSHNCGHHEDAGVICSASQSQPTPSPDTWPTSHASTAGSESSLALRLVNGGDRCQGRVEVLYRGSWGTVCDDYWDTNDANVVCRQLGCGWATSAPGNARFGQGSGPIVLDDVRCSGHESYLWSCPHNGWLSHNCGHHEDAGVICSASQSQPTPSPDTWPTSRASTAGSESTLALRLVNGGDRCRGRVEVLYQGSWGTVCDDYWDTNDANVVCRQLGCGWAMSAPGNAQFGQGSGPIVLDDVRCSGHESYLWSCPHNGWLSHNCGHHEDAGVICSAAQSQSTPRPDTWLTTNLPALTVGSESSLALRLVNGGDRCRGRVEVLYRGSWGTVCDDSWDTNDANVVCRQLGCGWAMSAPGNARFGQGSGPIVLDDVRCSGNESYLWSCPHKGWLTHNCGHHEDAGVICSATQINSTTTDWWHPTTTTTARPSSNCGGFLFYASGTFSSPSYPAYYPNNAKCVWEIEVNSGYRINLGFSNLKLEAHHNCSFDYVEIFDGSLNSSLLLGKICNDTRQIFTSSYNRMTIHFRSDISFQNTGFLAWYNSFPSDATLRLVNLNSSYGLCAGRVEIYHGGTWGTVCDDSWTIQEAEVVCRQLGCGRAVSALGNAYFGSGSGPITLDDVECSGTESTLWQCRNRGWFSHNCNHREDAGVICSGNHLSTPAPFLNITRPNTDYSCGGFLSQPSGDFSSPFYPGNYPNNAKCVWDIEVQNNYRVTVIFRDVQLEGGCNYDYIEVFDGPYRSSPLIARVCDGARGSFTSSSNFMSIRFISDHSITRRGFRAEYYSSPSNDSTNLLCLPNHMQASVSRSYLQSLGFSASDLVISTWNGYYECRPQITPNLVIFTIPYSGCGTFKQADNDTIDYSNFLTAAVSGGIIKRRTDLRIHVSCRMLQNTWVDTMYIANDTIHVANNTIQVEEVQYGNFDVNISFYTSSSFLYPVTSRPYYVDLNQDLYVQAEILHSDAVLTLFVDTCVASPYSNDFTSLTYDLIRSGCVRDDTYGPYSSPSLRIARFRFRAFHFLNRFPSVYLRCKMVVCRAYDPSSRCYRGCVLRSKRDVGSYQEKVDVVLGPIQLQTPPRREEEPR
Sequence of iSRCR123 (Deglycosylated) (human) (Q9UGM3 102-463 limits assumed): as the sequence (Q9UGM3 102-463 limits assumed) above
Sequence of iSRCR1 (Deglycosylated) (human) (Q9UGM3 102-202): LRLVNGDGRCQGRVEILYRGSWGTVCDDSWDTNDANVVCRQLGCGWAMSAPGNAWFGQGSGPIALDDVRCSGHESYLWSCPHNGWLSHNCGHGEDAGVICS

Substance	Kd [1]	Ka [2]	Kd [2]	Ka [3]	Kd [3]	Ka [4]	Kd [4]	Ka [1]
A3VP1^SspB (S. gordonii DL1 SspB, residues 386-805) (from UniProt P16952 386-805)	338 nM	1.38e+06 M⁻¹	727 nM	3.19e+07 M⁻¹	31.4 nM	5.53e+07 M⁻¹	18.1 nM	–
C123^SspB (S. gordonii DL1 SspB, residues 913-1406) (from UniProt P16952 913-1406)	1090 nM	–	6220 nM	1.07e+07 M⁻¹	93.4 nM	–	–	921000 M⁻¹
